According to the DeepSol protein solubility set:

Assay: soluble on expression in E. coli; label from the status in PepcDB or PDB records

Row | Sequence | soluble on expression in E. coli
1 | MNYGFNFLHNTIIMMIIRSIIFRNFLFSISQLSQLNNVNTCSIIFHSLFTHFQITSHFTQMAAASSAPHQMQVRVTFYTSHNPQSVLMILKNDQALQQISEKARELFPSADYRLYYGDVNGPIFEFTNSDQIMSKIRITTFSRTPQLFVRLETVPLRPTALPSVSTETAKKASDADRESKSRSSLKRIENNQELTLKTLEKLQKELSRVSALETMVADLHAKEREPVVEEVQKPFPPVKHSASCDACLGDIIGHRFKCLECADYDLCEKCERKSLHYEHAMIRIVEPKKTMIPSYVTSNSPNNVFPTYMQHKIQQPQTIKGINKTVITRLVPSHQVNPAPMPQAPPVSTPVPFPPSPTIGNGAVPKPAQEPRIPPSPTSALPPPQFFNEETRAAIINSAALLKETFSTLSRSFLDLADGAQANMDKKIIERSTMEAGMTKFEEKMDNLKRHCEEKYLGTETAEAEKSEESSKKQADSLSGPKIKKAKKKSCYKKSAERLFTMQLAAAAAEQARLEQEAKKRAEASSAELQRKLAELNVKESQSKSEENIADFVLYDLYGNSLEALLRGRSSSRIADPPTTPNTEPATTELASTTSATPAVTAPASIVPVTPTAPIVETLIVPPLPPVESNPEEVTPMVTAPISIHSSFENISSDFESLSPSWGGYPDLEAAQRLEVIDDNLLDFSDVAVEAQEAQEAQEEARPEPEQSLPPFNEETEKTFDRLLEMGFSYNVTVAAIRANGSNLEMCLQALLH | not soluble
2 | MPCRGLHSIPAGPVEFPEIATVYVMCGEKLTVMIDAGVSNSIADFSFLDKLDYIVLTHLHIDHIGLLPELLQVYKAKVLVKSGFKKYLTSEDGLKKLNESAEKVLGDLYYVYGGLEKKLDQDKVIEVEGNEEFDLGGYRMRLIYTPGHARHHMSVLVDDFLFTGDSAGAYFNGVVIPTTPPVIDYKMYMESLKRQIELKPKVVGFAHGGLVSPKIMEEHLKQMLSKEEIQINVDIGGVAGEILRKQIEVNLRGLRESKKSI | soluble
3 | MALVPVYCLCRQPYNVNHFMIECGLCQDWFHGSCVGIEEENAVDIDIYHCPDCEAVFGPSIMKNWH | soluble
4 | MFSGGRKVKWNHFGKKYALRFSDYEMEYADLYDALLKKVHEVRADFEGDLAFIDQYGRQVIVSSDKDVREAIQQSKNKLKLHTTLRDGHVIAAADMAEAARGRPARSQSVPPERSYNMYPQRSPSSMDSAPDTYRHHPQQMTRAMSPPPMSTTTGSTHSPPLRQIGETVKTTYSHSGSYGGLYPGGYKGYPYGGGYSNSILYGMPPHNGMLWRFLANPFPFGNAQTRSFIGPNKYHHFGGYNHMYSSGFGGPVW | not soluble
5 | MKKALFLVGLVFTAGVISSCGGVSSQRTYEGAAVGAAVGAAAGVLLDKENRWRGGVIGAALGAILGGTITEIAQRAAKEAAQNNKPVVYRAEDGSQMVRAEPVEKRGNCTLVKTKYYQNGKLVKVEEKEVCE | not soluble
6 | MGSDKIHHHHHHMSAVTESVLESIISPVTMSEFLEEYWPVKPLVARGEVERFTSIPGFEKVRTLENVLAIYNNPVMVVGDAVIEESEGITDRFLVSPAEALEWYEKGAALEFDFTDLFIPQVRRWIEKLKAELRLPAGTSSKAIVYAAKNGGGFKAHFDAYTNLIFQIQGEKTWKLAKNENVSNPMQHYDLSEAPYYPDDLQSYWKGDPPKEDLPDAEIVNLTPGTMLYLPRGLWHSTKSDQATLALNITFGQPAWLDLMLAALRKKLISDNRFRELAVNHQSLHESSKSELNGYLESLIQTLSENAETLTPEQIFQSQDSDFDPYQSTQLVFRQLLTSYKF | soluble
7 | MACKLLFWKLKDYQNILLYSPLGHELDIRPLIFRLRQKNKCVWLPKSIKKGAHFSKESFTIAPFRLPLRRLGWFDEPSLSRYYKQELDCIVVPILGMDTSFRRVGFGLGMYDRSLPQLLKRRLKRPLIVFVSRELAIANGVLTNAYDIEADLYMNARIVVKNNKRKHYEQRVNLHFIRSLGSVFDYRSSHVLCDEKDLLRLEHHHHHH | not soluble
8 | MGSDKIHHHHHHMNNPISDDYRNLLVEVKQRIRSAQYEALKAVNKELIALYWDIGKMIVTQQQEADWGKSVVEQLAKDLQTEFPGISGFSTRNMWNMRSFYIAYSQNEKLQPLVAEIGWTHNIVILEKCKDDLEREFYLRMTRKFGWTKNVLIHQIENQTYEKTLLNQTNFNQTVPAEIRNQLKLAVKDEYTFDFLELADEHSERQLEQAILARVEPFLQEMGGRFTFVGSQYRLEIGDQEFFIDLLLYHRQLKCLVAVELKTGEFLPEYVGKMQFYLAALDDLSRLPDENLSIGIILCKSKNKTIVEYALRESNKPIGVATYKVFSSLPQDLRNQLPAPEQVAKLLEGVE | not soluble
9 | MGSDKIHHHHHHGASEVMWKDFRNEKTIDTVYLGSSFSQVTFNPYIIDEKLGWKSFNMGTPAQPLDQSYVALQNAIKEKKIKRAVLAYGIPTMEDTQNDNARITFAHAMKYGCSWKQKVKMDWDFITDKENINTESSINYLFPWISNSIEWTKTAIENNIKLKKHNNDATENMKTTEWYASYIGKGYAPILTGGFDYKNAITDNTKANYNCIISETAYCKLEKICRLCKDNEVEFIIVNTPKAPYDISMYGADEYFAINSRIEEICTKYGFSYYDFNLIKPQIFQICPEYLNNYEHLSKAGSEAFCNAFSNFIRLHDSGECMTNYFYNEEEYLDSVKDIVQCIKE | not soluble
10 | MSFWRVFLFGLFLTPPAAACDLALALAVDVSGSVDEGEYRTQMDGLAHALRDPVVSEALVRAEAQLMLVQWTGSDRQRVTIPWTQASSFDALDRFADRVAADPRIWRNYSTAIGEALEVTMAAFAQVPDCARHLIDVSGDGPSNEGIEPLAVHRDLRALGITVNAIAIEQSEPDLTAYFYENVIVGEGAFVETANGFADYPARIRKKLLREVTQQTAALDLEHHHHHH | not soluble
11 | MPDRHVASSETKRGGAGMTDRELSDQAIAVLVDVARTAGRDLNAGQRLELDRLVSDGLVAVSTSGDPAGQRHYRLTVAGQTALDQRGVGANEA | not soluble
12 | MRLDYALFSQHLVNSREKAKALVLKNQVLVNKMVVSKPSFIVKENDKIELIAEKLFVSRAGEKLGAFLETHFVDFKGKVVLDVGASKGGFSQVALLKGAKRVLCVDVGKMQLDESLKQDKRIECYEECDIRGFKTPETIDLALCDVSFISLYYILEAILPLSDEFLTLFKPQFEVGRGIKRNKKGVVVDKEAILNALENFKNHLKTKDFQILKIQESLVKGKNGNVEFFIHFKRA | not soluble
13 | MSLNASVSPKGSLETLSQREVQQLSEVGTGSLYTLFRQCALAILNTGAHVDNAKTILEAYKDFEVRIHQQDRGVRLELLNAPADAFVDGEMIASTREMLFSALRDIVYTESELASQRIDLESSQGITDYVFHLLRNARTLRPGEGHHHHHH | not soluble
14 | MKKTIQQLVLERILILDGAMGTMIQQYNLREEDFRNERFAHIPGQLKGNNDLLCLTRPDVIRDIHRKYLEAGADIIETNTFSSTTISMADYHVQEYVREMNQAAVKLAREVADEYTALNPDKPRFVAGSVGPTNKTCSMSPDVNNPAYRAVTYDEMADAYQQQMEAMLESGVDALLIETIFDTLNAKAAILAAERAMKATGVKVPVMLSVTVSDTGGRTLSGQTLEAFLASVQHADIFSVGLNCSFGARQLKPFLEQLAARAPYYISAYPNAGLPNSLGKYDQTPADMAHEVKEYVHEGLINIIGGCCGTTDAYIAEYPALIAGAKPHIPVCKPDCMWLSGLELLEVKPEINFVNVGERCNVAGSRKF | not soluble
15 | GLIDAHGHVIGYGHSLLRVDLVNATSELDAVNRTISYAKDNPSMSWILGRGWNQVQWSNNSYPNAKSLDEAFPNKPVWLRRVDGHAGWANSKAMALAGITSASKAPVGGDIIKDKNGLPTGIFIDNAMTLITASITPPSPMEDKIALKRAMHSLASLGLTSVHDAGIEQKDIALYKTLASEGNMTIRINGMLYLPSTNWQQQLEQGPYRTEDEMFAVNSVKIQADGALGSRGASLINDYSDHSGHKGLLLHDKKSLQHYIDFAMNAGFQVNTHAIGDNANKLILDLYQQAIQKSQTKALRHRIEHAQVLRLEDISRFSSLNVIASMQATHATSDKNMAVTRLGGKRILGAYAWRKLLDSNTIIAAGSDFPVESPNPFFGLHASITRQDHKDLPIGGWYADQKMTRTEALRSFTIDAAYAGHQEKLIGSLEAGKKADFILLADDLLTMPESTIWQSQVSQTWVAGKKVFSAIDVPSVE | not soluble
16 | MTSMEEMLREAANEVLQSRIPPGYVLYPNYEQYWSHEHGMFYNPDTEQFYRPEDKTVYQLNAEGSEYVLVERRKPTYWASRSYRKRAIDLLGSAEFKKFDQNEVNICEIAFGMVDKVIKGEEMEKEKEYLRSIANNKVALMQHRINKVFKGNRRRKNPHRQYVANVDESSGHVEYTLQVDDYFDWEDAYEDNSDDEFSEKDEQAVLMHQEGFDQPPCMRVMDALRRLHIITISGGYLGSDRDCEIVVSNQLLPERCAEIVYSEEAQCYSIEKLEDACILQVNGNNVKTSSPVDLCQGDSILLSGERFDVHVHNGSNTCPGCEPGLQQGDDDIAPVTTVPAKNIRGEVARRKNLKQMMKSYGIRPDDVLSEPIRKRPATGPSEMNIHRSEAPGSSSDMYGSCAAKPMPEGQRKFDLPSTSAAVAAAAAPKPLDSGNVGFKLLKSMGWSEGQGLGKEKQGHVEPVATEVKNNRKGLGANEKEPPTKSYKDQVLEKTKQRFNEKR | not soluble
17 | MSLGSERWITVQLVGEIMGTSFERGISQYPNVNDEVHLVTESDLEAIHGVEEQGQVVVGRLASADGIPVKLDLDKMVTRHSAVLGSTGSGKSTTVASLLRSIVSGADGSDAGFPSSRILMLDIHGEYSHALSDVAKVFRISPEANQTQLHIPFWALDPNELLCFLMGRLDDKPLTAILDKVYEYKHDQAVAHPRAGLNVTSMTSDTPVPFSLKKLWLELLEPEVKTWEDTARSQPALLEAGNADNVTPPQYKPHGAGATPPFINQIGVLGIRRPLDQLRSRLLDKKYDFLLHPGDWEPDLDGNVTKDLDALLEEWLGHDKPITILDLSGVPSLVLEQLIGAILRILYEALFWGRDRSEGHHHHHH | soluble
18 | MKTPAILLLLFLFMMSLAQSDEEQSGKEPPEKDDVLVILAEDNSTLLNNNQTMYDPSSEEKESDKPKFNLLETYLPLFIFVLDLPTEDRETLKAYVKDKTYEKLKYVIDSKVKMNRNEKNVLGRINESLVQSIDNLEHFDEITVDVVNGYHNASVYNAIRSVWLKQLRPFLPLIDQMAIQQKSSETEKMSIWARLWENLSVWMYGKKKLNECYAMEPKCVRHALELLNFEQRIDLDLAAYENKFDSVDGIIRERLGENRKSSELDEWLHRNRPPKALQAILDERSDIEEEALQRLRDNGVLSSLKHYYKAVIESRSHEEQEDIRHFFDIMNDTFARCFDPLRGQYHDF | not soluble
19 | MLKCVMSGSQVKVFGKAVQALSRISDEFWLDPSKKGLALRCVNSSRSAYGCVLFSPVFFQHYQWSALVKMSENELDTTLHLKCKLGMKSILPIFRCLNSLERNIEKCRIFTRSDKCKVVIQFFYRHGIKRTHNICFQESQPLQVIFDKNVCTNTLMIQPRLLADAIVLFTSSQEEVTLAVTPLNFCLKSSNEESMDLSNAVHSEMFVGSDEFDFFQIGMDTEITFCFKELKGILTFSEATHAPISIYFDFPGKPLALSIDDMLVEANFILATLADEQSRASSPQSLCLSQKRKRSDLIEKKAGKNVTGQALECISKKAAPRRLYPKETLTNISALENCGSPAMKRVDGDVSEVSESSVSNTEEVPGSLCLRKFSCMFFGAVSSDQQEHFNHPFDSLARASDSEEDMNNGSFSIFLEHHHHHH | not soluble
20 | MEWIKQILAKHMKEDGTLDMEAANKEIDKEFPVNAVPKDQYNNLSSQLAEANKTLKSLEAKTKDNPDVQKELADLKEKADALEKENKDLKINSQVSAALQSAGAKDIDYALFKLGELELDKDGNVKDLESKVKDLKASIPDYFEKKDTLDDKSKKKTENKAGYQPIDNKLPKGKEPNEKDPFEAILSKYE | not soluble
21 | MGYRRFLQLVAHEFFHLWNVKRIRPKALEQFDYEAENYTPSLWFSEGATSYYDLLLPLRAGLYGVDSFLEALGKDLSRYLTTPGRKVQPLAESSFDAWVKLYRRDAYSDNQQMSYYLKGQLVCWLLDLEIRNHQPDLEHHHHHH | soluble
